Experimental findings from publication PMC11420955 are described below.

Test [1] has as its target McjB M108T (UniProt Q9X2V8).
Test [2] addresses T1, McjB (UniProt Q9X2V8).
T1 sequence: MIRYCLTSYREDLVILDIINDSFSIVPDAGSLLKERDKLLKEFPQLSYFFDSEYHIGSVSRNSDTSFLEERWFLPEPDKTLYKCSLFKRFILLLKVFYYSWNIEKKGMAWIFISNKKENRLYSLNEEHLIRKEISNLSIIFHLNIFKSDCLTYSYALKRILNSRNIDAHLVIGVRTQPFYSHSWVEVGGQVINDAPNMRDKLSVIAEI

Test [3] has as its target McjC S440Y (UniProt Q9X2V9).
The target in test [4] is McjC K337E (UniProt Q9X2V9).
For test [5], the target named is T2, McjC (UniProt Q9X2V9).
T2 sequence: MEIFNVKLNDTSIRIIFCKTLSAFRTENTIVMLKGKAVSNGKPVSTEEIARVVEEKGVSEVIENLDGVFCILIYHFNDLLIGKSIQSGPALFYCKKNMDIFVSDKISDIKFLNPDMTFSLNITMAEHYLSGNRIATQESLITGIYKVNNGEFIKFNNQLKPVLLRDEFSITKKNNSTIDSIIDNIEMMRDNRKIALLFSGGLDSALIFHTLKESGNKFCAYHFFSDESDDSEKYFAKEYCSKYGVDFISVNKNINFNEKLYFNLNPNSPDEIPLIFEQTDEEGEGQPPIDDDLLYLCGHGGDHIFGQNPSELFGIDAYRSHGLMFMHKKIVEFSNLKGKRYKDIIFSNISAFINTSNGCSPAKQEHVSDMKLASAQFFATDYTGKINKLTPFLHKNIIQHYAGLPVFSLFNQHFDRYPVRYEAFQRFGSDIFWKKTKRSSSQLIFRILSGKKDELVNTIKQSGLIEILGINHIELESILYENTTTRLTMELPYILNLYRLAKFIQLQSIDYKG

Numbering of substitutions follows the chain as printed. Numbers in names are those of the source.

Consider McjA T-2M (peptide), for which, in test [1], the MccJ25 production yield relative to WT (HPLC peak area of E. coli culture extract; synthetic rescue pair TM) turned out to be 5.4%. Moreover, the MccJ25 production yield relative to WT (HPLC peak area of E. coli culture extract) in test [2] came to 1%. Turning to Microcin J25 precursor peptide McjA, the MccJ25 production yield relative to WT (HPLC peak area of E. coli culture extract) is 2.4% in test [3] and 8.1% in test [4]. In turn, “Split McjB S80/81 (B1 1-80 and B2 81-208 as separate proteins) (from UniProt Q9X2V8 1-80; Q9X2V8 81-208) (complex)” registered a MccJ25 production yield relative to WT (HPLC peak area of E. coli culture extract) in test [5] of 41%.

B1: McjB circular permutant CP80/81 (enzyme)
chain: LYKCSLFKRFILLLKVFYYSWNIEKKGMAWIFISNKKENRLYSLNEEHLIRKEISNLSIIFHLNIFKSDCLTYSYALKRILNSRNIDAHLVIGVRTQPFYSHSWVEVGGQVINDAPNMRDKLSVIAEIGGSSGGMIRYCLTSYREDLVILDIINDSFSIVPDAGSLLKERDKLLKEFPQLSYFFDSEYHIGSVSRNSDTSFLEERWFLPEPDKT
For the molecule B1, the MccJ25 production yield relative to WT (HPLC peak area of E. coli culture extract) in test [5] came to 4.4%.

B2: McjB circular permutant CP60/61 (enzyme)
chain: RNSDTSFLEERWFLPEPDKTLYKCSLFKRFILLLKVFYYSWNIEKKGMAWIFISNKKENRLYSLNEEHLIRKEISNLSIIFHLNIFKSDCLTYSYALKRILNSRNIDAHLVIGVRTQPFYSHSWVEVGGQVINDAPNMRDKLSVIAEIGGSSGGMIRYCLTSYREDLVILDIINDSFSIVPDAGSLLKERDKLLKEFPQLSYFFDSEYHIGSVS
On to B2, for which, in test [5], the MccJ25 production yield relative to WT (HPLC peak area of E. coli culture extract) amounted to 0.4%.

B3: McjB with a C-terminal MBP fusion (enzyme)
chain: T1 sequence
In test [5], B3 showed a MccJ25 production yield relative to WT (HPLC peak area of E. coli culture extract; McjB-MBP in an otherwise native gene cluster) of 61%.

B4: McjB F67R (enzyme)
chain: T1 sequence with F67R
For B4, in test [5], the MccJ25 production yield relative to WT (HPLC peak area of E. coli culture extract) is 0.6%.

B5: McjC with a C-terminal MBP fusion (enzyme)
chain: T2 sequence
In the case of B5, the MccJ25 production yield relative to WT (HPLC peak area of E. coli culture extract; McjC-MBP in an otherwise native gene cluster) in test [2] came out at 86%.
